Blank lines part the entries; values can stand above or below the binder they belong to.
What was measured:
Sra1 = Sra1 (human, UniProt Q7L576 1-1253); experiment: reconstitution and co-purification of subcomplexes and pentamer
[1] = biological target: ∆WRC230 with Sra1 W845A/Y849A (∆M#3) (human, UniProt Q7L576;Q9Y2A7;Q92558;Q9NYB9;Q8WUW1, W845A | Y849A); experiment: pull-down
WAVE1(1-230) = biological target: T1, WAVE1(1-230) (human, UniProt Q92558 1-230); experiment: reconstitution and co-purification of subcomplexes and pentamer
T1 sequence: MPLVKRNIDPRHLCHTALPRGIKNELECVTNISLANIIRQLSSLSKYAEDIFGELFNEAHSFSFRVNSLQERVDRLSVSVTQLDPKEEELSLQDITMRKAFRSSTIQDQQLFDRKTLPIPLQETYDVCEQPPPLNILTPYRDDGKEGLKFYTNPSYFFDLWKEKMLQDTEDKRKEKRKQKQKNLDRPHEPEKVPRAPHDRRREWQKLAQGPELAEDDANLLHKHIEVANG

Sra1/Nap1 dimer = Sra1/Nap1 dimer (human, UniProt Q7L576;Q9Y2A7); experiment: as above
Sequence of Sra1/Nap1 dimer (Q7L576 whole entry, one chain of several): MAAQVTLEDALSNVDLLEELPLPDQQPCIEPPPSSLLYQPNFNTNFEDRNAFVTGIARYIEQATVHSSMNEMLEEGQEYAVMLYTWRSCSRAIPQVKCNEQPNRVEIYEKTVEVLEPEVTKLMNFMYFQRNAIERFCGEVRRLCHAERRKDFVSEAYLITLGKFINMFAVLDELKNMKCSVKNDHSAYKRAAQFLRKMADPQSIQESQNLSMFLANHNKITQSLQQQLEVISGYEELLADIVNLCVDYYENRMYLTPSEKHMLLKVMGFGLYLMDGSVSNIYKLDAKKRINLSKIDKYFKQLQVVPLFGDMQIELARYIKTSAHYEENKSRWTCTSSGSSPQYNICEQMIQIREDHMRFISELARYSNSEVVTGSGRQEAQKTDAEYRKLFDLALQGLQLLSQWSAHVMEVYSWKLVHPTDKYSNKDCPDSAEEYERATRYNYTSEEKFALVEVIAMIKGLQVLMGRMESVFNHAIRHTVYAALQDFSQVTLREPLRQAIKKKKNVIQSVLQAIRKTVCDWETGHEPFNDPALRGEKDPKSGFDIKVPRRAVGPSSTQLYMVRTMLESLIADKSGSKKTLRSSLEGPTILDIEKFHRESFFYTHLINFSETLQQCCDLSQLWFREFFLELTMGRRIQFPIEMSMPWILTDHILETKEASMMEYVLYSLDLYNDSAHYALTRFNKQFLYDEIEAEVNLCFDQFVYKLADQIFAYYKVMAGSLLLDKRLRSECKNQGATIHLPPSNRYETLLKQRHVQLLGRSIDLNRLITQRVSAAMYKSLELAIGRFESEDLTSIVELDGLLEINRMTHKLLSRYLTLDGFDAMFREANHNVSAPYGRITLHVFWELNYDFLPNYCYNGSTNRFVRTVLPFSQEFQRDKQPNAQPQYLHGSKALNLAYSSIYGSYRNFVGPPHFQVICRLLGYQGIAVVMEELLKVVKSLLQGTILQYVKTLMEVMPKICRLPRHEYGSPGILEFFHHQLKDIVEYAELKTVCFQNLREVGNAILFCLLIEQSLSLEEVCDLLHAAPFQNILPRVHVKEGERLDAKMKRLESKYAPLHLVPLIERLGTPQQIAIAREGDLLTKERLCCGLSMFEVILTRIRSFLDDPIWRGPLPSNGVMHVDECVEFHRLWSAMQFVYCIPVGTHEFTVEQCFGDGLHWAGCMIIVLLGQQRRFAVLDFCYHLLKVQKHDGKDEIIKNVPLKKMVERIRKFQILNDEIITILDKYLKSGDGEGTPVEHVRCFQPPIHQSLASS

Sequence of Sra1 (Q7L576 whole entry): as the sequence (Q7L576 whole entry, one chain of several) above
Sequence of ∆WRC230 with Sra1 W845A/Y849A (∆M#3) (Q7L576 whole entry W845A/Y849A, one chain of several): as the sequence (Q7L576 whole entry, one chain of several) above, with W845A, Y849A counted along it

B1: Nap1 (natural protein)
chain: MSRSVLQPSQQKLAEKLTILNDRGVGMLTRLYNIKKACGDPKAKPSYLIDKNLESAVKFIVRKFPAVETRNNNQQLAQLQKEKSEILKNLALYYFTFVDVMEFKDHVCELLNTIDVCQVFFDITVNFDLTKNYLDLIITYTTLMILLSRIEERKAIIGLYNYAHEMTHGASDREYPRLGQMIVDYENPLKKMMEEFVPHSKSLSDALISLQMVYPRRNLSADQWRNAQLLSLISAPSTMLNPAQSDTMPCEYLSLDAMEKWIIFGFILCHGILNTDATALNLWKLALQSSSCLSLFRDEVFHIHKAAEDLFVNIRGYNKRINDIRECKEAAVSHAGSMHRERRKFLRSALKELATVLSDQPGLLGPKALFVFMALSFARDEIIWLLRHADNMPKKSADDFIDKHIAELIFYMEELRAHVRKYGPVMQRYYVQYLSGFDAVVLNELVQNLSVCPEDESIIMSSFVNTMTSLSVKQVEDGEVFDFRGMRLDWFRLQAYTSVSKASLGLADHRELGKMMNTIIFHTKMVDSLVEMLVETSDLSIFCFYSRAFEKMFQQCLELPSQSRYSIAFPLLCTHFMSCTHELCPEERHHIGDRSLSLCNMFLDEMAKQARNLITDICTEQCTLSDQLLPKHCAKTISQAVNKKSKKQTGKKGEPEREKPGVESMRKNRLVVTNLDKLHTALSELCFSINYVPNMVVWEHTFTPREYLTSHLEIRFTKSIVGMTMYNQATQEIAKPSELLTSVRAYMTVLQSIENYVQIDITRVFNNVLLQQTQHLDSHGEPTITSLYTNWYLETLLRQVSNGHIAYFPAMKAFVNLPTENELTFNAEEYSDISEMRSLSELLGPYGMKFLSESLMWHISSQVAELKKLVVENVDVLTQMRTSFDKPDQMAALFKRLSSVDSVLKRMTIIGVILSFRSLAQEALRDVLSYHIPFLVSSIEDFKDHIPRETDMKVAMNVYELSSAAGLPCEIDPALVVALSSQKSENISPEEEYKIACLLMVFVAVSLPTLASNVMSQYSPAIEGHCNNIHCLAKAINQIAAALFTIHKGSIEDRLKEFLALASSSLLKIGQETDKTTTRNRESVYLLLDMIVQESPFLTMDLLESCFPYVLLRNAYHAVYKQSVTSSA
binding result (Sra1): binds

B2: GST-Arf1 (Arf1^∆N17) (natural protein)
chain: not shown
binding result [1]: binds

More lines, now with the values ahead:

binding result (WAVE1(1-230)): binds
B3: HSPC300 (natural protein)
chain: MAGQEDPVQREIHQDWANREYIEIITSSIKKIADFLNSFDMSCRSRLATLNEKLTALERRIEYIEARVTKGETLT

binding result (WAVE1(1-230)): binds
B4: Abi2(1-158) (domain or fragment)
chain: MAELQMLLEEEIPGGRRALFDSYTNLERVADYCENNYIQSADKQRALEETKAYTTQSLASVAYLINTLANNVLQMLDIQASQLRRMESSINHISQTVDIHKEKVARREIGILTTNKNTSRTHKIIAPANLERPVRYIRKPIDYTILDDIGHGVKWLLR

binding result (Sra1/Nap1 dimer): binds
B5: WAVE1(1-230)/Abi2(1-158)/HSPC300 trimer (complex)
chain 1: MPLVKRNIDPRHLCHTALPRGIKNELECVTNISLANIIRQLSSLSKYAEDIFGELFNEAHSFSFRVNSLQERVDRLSVSVTQLDPKEEELSLQDITMRKAFRSSTIQDQQLFDRKTLPIPLQETYDVCEQPPPLNILTPYRDDGKEGLKFYTNPSYFFDLWKEKMLQDTEDKRKEKRKQKQKNLDRPHEPEKVPRAPHDRRREWQKLAQGPELAEDDANLLHKHIEVANG
chain 2: MAELQMLLEEEIPGGRRALFDSYTNLERVADYCENNYIQSADKQRALEETKAYTTQSLASVAYLINTLANNVLQMLDIQASQLRRMESSINHISQTVDIHKEKVARREIGILTTNKNTSRTHKIIAPANLERPVRYIRKPIDYTILDDIGHGVKWLLR
chain 3: MAGQEDPVQREIHQDWANREYIEIITSSIKKIADFLNSFDMSCRSRLATLNEKLTALERRIEYIEARVTKGETLT

From article PMC9750158 (Science Advances, 2022)
